From patent US20250320312A1 (OXITOPE PHARMA B V, published 2025) come the findings set out here.

B1: PcOxP_DB01_D01 (human IgG1) (antibody, V domains shown)
VH: EVQLLESGGGLVQPGGSLRLSCAASGFTFSSYYMEWVRQAPGKGLEWVAASRNKANDYTTEYADSVKGRFTISRDNSKNTLYLQMNSLRAEDTAVYYCARDYYGSSYWYFDVWGQGTLVTVSS
VL: DIVMTQSPDSLAVSLGERATINCTASESLYSPKHKVHYLAWYQQKPGQPPKLLIYGASNRYIGVPDRFSGSGSGTDFTLTISSLQAEDVAVYYCAQFYIYPLTFGGGTKVEIK
B2: PcOxP_DB01_E05 (human IgG1) (antibody, V domains shown)
VH: EVQLLESGGGLVQPGGSLRLSCAASGFTFSDYYMEWVRQAPGKGLEWVAASRNKANDYTTEYADSVKGRFTISRDNSKNTLYLQMNSLRAEDTAVYYCARDYYGSSYWYFDVWGQGTLVTVSS
VL: DIQMTQSPSSLSASVGDRVTITCTASESLYSSKHKVNYLAWYQQKPGKAPKLLIYGASNRYIGVPSRFSGSGSGTDFTLTISSLQPEDFATYYCAQFYQYPLTFGGGTKVEIK
B3: PcOxP_DB03_D08 (human IgG1) (antibody, V domains shown)
VH: EVQLLESGGGLVQPGGSLRLSCAASGFWFSDFYMEWVRQAPGKGLEWVAASRNKANDYTTEYADSVKGRFTISRDNSKNTLYLQMNSLRAEDTAVYYCARDYYGSAYWYFDVWGQGTLVTVSS
VL: DIQMTQSPSSLSASVGDRVTITCTASESLYSSKHKVHYLAWYQQKPGKAPKLLIYGASNRYIGVPSRFSGSGSGTDFTLTISSLQPEDFATYYCAQFYSYPLTFGGGTKVEIK
B4: PcOxP_DB02_A06 (human IgG1) (antibody, V domains shown)
VH: EVQLLESGGGLVQPGGSLRLSCAASGFTFSDQYMEWVRQAPGKGLEWVAASRNKANDYTTEYADSVKGRFTISRDNSKNTLYLQMNSLRAEDTAVYYCARDYYGSSYWYFDVWGQGTLVTVSS
VL: DIQMTQSPSSLSASVGDRVTITCTASESLYSSKHKVHYLAWYQQKPGKAPKLLIYGLSNRYIGVPSRFSGSGSGTDFTLTISSLQPEDFATYYCAQFYSYPLTFGGGTKVEIK
B5: PcOxP_DB03_C03 (human IgG1) (antibody, V domains shown)
VH: EVQLLESGGGLVQPGGSLRLSCAASGFTFSDFYMEWVRQAPGKGLEWVAASRNKYNDYTTEYADSVKGRFTISRDNSKNTLYLQMNSLRAEDTAVYYCARDYYGSSYWYFDVWGQGTLVTVSS
VL: DIQMTQSPSSLSASVGDRVTITCTASESLYSSKHKVHYLAWYQQKPGKAPKLLIYGASNRYIGVPSRFSGSGSGTDFTLTISSLQPEDFATYYCAQFYSYPLTFGGGTKVEIK
B6: PcOxP_DB02_C01 (human IgG1) (antibody, V domains shown)
VH: EVQLLESGGGLVQPGGSLRLSCAASGFTFSDAYMEWVRQAPGKGLEWVAASRNKANDYTTEYADSVKGRFTISRDNSKNTLYLQMNSLRAEDTAVYYCARDYYGSSYWYFDVWGQGTLVTVSS
VL: DIQMTQSPSSLSASVGDRVTITCTASESLYSSKHKVHYLAWYQQKPGKAPKLLIYGASNRYIGVPSRFSGSGSGTDFTLTISSLQPEDFATYYCAQFYSYPLTFGGGTKVEIK
B7: PcOxP_DB03_A09 (human IgG1) (antibody, V domains shown)
VH: EVQLLESGGGLVQPGGSLRLSCAASGFTFSDYYMEWVRQAPGKGLEWVAASRNKANDYTTEYADSVKGRFTISRDNSKNTLYLQMNSLRAEDTAVYYCARDYYGSSYWYFDVWGQGTLVTVSS
VL: DIQMTQSPSSLSASVGDRVTITCTASESLYSSKHKVHYLAWYQQKPGKAPKLLIYGASNRGIGVPSRFSGSGSGTDFTLTISSLQPEDFATYYCAQFYSYPLTFGGGTKVEIK
B8: PcOxP_DB03_B09 (human IgG1) (antibody, V domains shown)
VH: EVQLLESGGGLVQPGGSLRLSCAASGFTFSSYYMEWVRQAPGKGLEWVAASRNKANDYTTEYADSVKGRFTISRDNSKNTLYLQMNSLRAEDTAVYYCARDYYGSSYWYFDVWGQGTLVTVSS
VL: DIVMTQSPDSLAVSLGERATINCTASESLYSSKHKVHYLAWYQQKPGQPPKLLIYGAANRYIGVPDRFSGSGSGTDFTLTISSLQAEDVAVYYCAQFYSYPLTFGGGTKVEIK
B9: PcOxP_DB01_D11 (human IgG1) (antibody, V domains shown)
VH: EVQLLESGGGLVQPGGSLRLSCAASGFTFSSYYMEWVRQAPGKGLEWVAASRNKANDYTTEYADSVKGRFTISRDNSKNTLYLQMNSLRAEDTAVYYCARDYYGSSYWYNDVWGQGTLVTVSS
VL: DIVMTQSPDSLAVSLGERATINCTASESLYSSKWKVHYLAWYQQKPGQPPKLLIYGASNRYIGVPDRFSGSGSGTDFTLTISSLQAEDVAVYYCAQFYSYPLTFGGGTKVEIK
B10: PcOxP_DB03_C12 (human IgG1) (antibody, V domains shown)
VH: EVQLLESGGGLVQPGGSLRLSCAASGFTFSDYYMEWVRQAPGKGLEWVAASRNKANDYTTEYADSVKGRFTISRDNSKNTLYLQMNSLRAEDTAVYYCARDYYGSSYWYFDVWGQGTLVTVSS
VL: DIQMTQSPSSLSASVGDRVTITCTASESLYSSKHKVHYLAWYQQKPGKAPKLLIYGASNRYGGVPSRFSGSGSGTDFTLTISSLQPEDFATYYCAQFYSYPLTFGGGTKVEIK
B11: PcOxP_DB01_H02 (human IgG1) (antibody, V domains shown)
VH: EVQLLESGGGLVQPGGSLRLSCAASGFTFSSYYMEWVRQAPGKGLEWVAASRNKANDYTTEYADSVKGRFTISRDNSKNTLYLQMNSLRAEDTAVYYCARDYYGSSYWYFDVWGQGTLVTVSS
VL: DIVMTQSPDSLAVSLGERATINCTASSSLYSSKHKVHYLAWYQQKPGQPPKLLIYGASNRYIGVPDRFSGSGSGTDFTLTISSLQAEDVAVYYCAQFYSYPLTFGGGTKVEIK
B12: PcOxP_DB01_H04 (human IgG1) (antibody, V domains shown)
VH: EVQLLESGGGLVQPGGSLRLSCAASGFAFSDFYMEWVRQAPGKGLEWVAASRNKANDYTTEYADSVKGRFTISRDNSKNTLYLQMNSLRAEDTAVYYCARDYYGSHYWYFDVWGQGTLVTVSS
VL: DIQMTQSPSSLSASVGDRVTITCTASESLYSSKHKVHYLAWYQQKPGKAPKLLIYGASNLQSGVPSRFSGSGSGTDFTLTISSLQPEDFATYYCAQFYYYPLTFGGGTKVEIK
B13: PcOxP_DB01_F01 (human IgG1) (antibody, V domains shown)
VH: EVQLLESGGGLVQPGGSLRLSCAASGFPFSDFYMEWVRQAPGKGLEWVAASRNKANDYTTEYADSVKGRFTISRDNSKNTLYLQMNSLRAEDTAVYYCARDYYGSPYWYFDVWGQGTLVTVSS
VL: DIVMTQSPDSLAVSLGERATINCTASESVYSSKNKKHYLAWYQQKPGQPPKLLIYGASNRYIGVPDRFSGSGSGTDFTLTISSLQAEDVAVYYCAQFYTYPLTFGGGTKVEIK
B14: PcOxP_DB02_H07 (human IgG1) (antibody, V domains shown)
VH: EVQLLESGGGLVQPGGSLRLSCAASGFTFSSYYMEWVRQAPGKGLEWVAASRNKANDYTTEYADSVKGRFTISRDNSKNTLYLQMNSLRAEDTAVYYCARDYYGSSYWYFDVWGQGTLVTVSS
VL: DIVMTQSPDSLAVSLGERATINCTASESLYSSKHKVHYLAWYQQKPGQPPKLLIYGASNRYNGVPDRFSGSGSGTDFTLTISSLQAEDVAVYYCAQFYTYPLTFGGGTKVEIK
B15: PcOxP_DB01_G10 (human IgG1) (antibody, V domains shown)
VH: EVQLLESGGGLVQPGGSLRLSCAASGFTFSDFYMEWVRQAPGKGLEWVAASRNKNNDYTTEYADSVKGRFTISRDNSKNTLYLQMNSLRAEDTAVYYCARDYYGSSYWYFDVWGQGTLVTVSS
VL: DIVMTQSPDSLAVSLGERATINCKASQSLYSSKHKKHYLAWYQQKPGQPPKLLIYGASNRYPGVPDRFSGSGSGTDFTLTISSLQAEDVAVYYCAQFYRYPLTFGGGTKVEIK

A word on the EC50: it is the midpoint of the concentration-response curve.

PC-BSA, sequence (P02769 25-607 limits assumed, form in doubt): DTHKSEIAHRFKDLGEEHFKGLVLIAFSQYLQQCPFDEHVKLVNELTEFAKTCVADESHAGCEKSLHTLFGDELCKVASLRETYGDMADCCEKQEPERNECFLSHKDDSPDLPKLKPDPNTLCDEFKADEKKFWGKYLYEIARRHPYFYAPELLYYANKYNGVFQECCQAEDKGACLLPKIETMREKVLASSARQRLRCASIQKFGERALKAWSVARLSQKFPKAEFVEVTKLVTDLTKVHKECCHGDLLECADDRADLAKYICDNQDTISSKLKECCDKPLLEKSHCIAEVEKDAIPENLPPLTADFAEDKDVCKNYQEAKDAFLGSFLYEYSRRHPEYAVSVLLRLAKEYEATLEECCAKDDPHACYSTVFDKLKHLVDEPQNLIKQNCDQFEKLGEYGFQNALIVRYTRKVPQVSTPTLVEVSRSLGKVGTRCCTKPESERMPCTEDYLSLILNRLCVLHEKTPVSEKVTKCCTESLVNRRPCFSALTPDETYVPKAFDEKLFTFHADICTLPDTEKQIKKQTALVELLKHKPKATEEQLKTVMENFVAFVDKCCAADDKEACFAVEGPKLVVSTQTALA

This assay concerns the target PC-BSA. The assay can be described thus: ELISA (DELFIA TRF), PC-BSA coated, titrated IgG1. For orientation: An ELISA detects its analyte on a solid surface through an enzyme-linked reagent.
B1: the half-maximal effective concentration (EC50) came to 0.274 nM.

Consider B2, for which the concentration for a half-maximal effect (EC50) was found to be 0.417 nM.

Turning to B3, the EC50 is 0.401 nM.

B4 showed a concentration for a half-maximal effect (EC50) of 0.643 nM.

B5: the half-maximal effective concentration (EC50) amounted to 0.339 nM.

On to B6, for which the EC50 was found to be 0.64 nM.

Molecule B7 gave an EC50 of 0.664 nM.

With B8, the 50% effective concentration (EC50) came to 0.426 nM.

In turn, B9 yielded an EC50 of 0.242 nM.

On to B10, for which the concentration giving a half-maximal response (EC50) came to 0.436 nM.

Molecule B11 showed an EC50 of 0.43 nM.

As to B12, the EC50 was 0.456 nM.

Molecule B13 displayed a concentration for a half-maximal effect (EC50) of 0.672 nM.

Take B14: the 50% effective concentration (EC50) came to 0.423 nM.

Regarding B15, the EC50 is 0.407 nM.
